Measured values: patent US20180273626A1

Legend:
FcεRIα (human) [1] = biological target: FcεRIα (human) (UniProt P12319); experiment: SPR; insect derived
FcεRIα (human) [2] = biological target: FcεRIα (human) (UniProt P12319); experiment: SPR; mammalian derived

Sequence of FcεRIα (human) (P12319 26-201): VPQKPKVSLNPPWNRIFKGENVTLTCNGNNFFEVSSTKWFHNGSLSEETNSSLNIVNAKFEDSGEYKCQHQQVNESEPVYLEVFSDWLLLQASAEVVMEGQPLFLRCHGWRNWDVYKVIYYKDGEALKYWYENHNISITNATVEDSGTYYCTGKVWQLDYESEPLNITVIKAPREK
Sequence of IgE-Fc3-4 (P01854 209-426): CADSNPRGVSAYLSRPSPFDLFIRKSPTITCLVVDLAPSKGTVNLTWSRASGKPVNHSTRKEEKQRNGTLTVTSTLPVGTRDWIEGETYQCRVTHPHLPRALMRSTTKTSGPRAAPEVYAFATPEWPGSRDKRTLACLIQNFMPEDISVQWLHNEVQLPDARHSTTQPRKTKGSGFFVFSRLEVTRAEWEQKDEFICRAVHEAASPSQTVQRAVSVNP

Substance: IgE-Fc3-4 (from UniProt P01854 209-426)
- Kd (FcεRIα (human) [1]): 0.66 nM
- Kd (FcεRIα (human) [2]): 0.933 nM
